In experiment [1] the target is untagged-cpAQP1aa-243 (C-terminally truncated aquaporin 1aa from Anabas testudineus, climbing perch) (Anabas testudineus (climbing perch)). Nature of the experiment: crystal structure; untagged-cpAQP1aa-243, hanging-drop vapor diffusion, 4°C; reservoir 100 mM Tris-HCl pH 7.8, 5% γ-PGA, 30% PEG400, D-sorbitol additive; space group P42_(1)2, one monomer in the asymmetric unit; 1.9 Å.

Experiment [2] has the same target. The experiment in a line: crystal structure; untagged-cpAQP1aa-243, hanging-drop vapor diffusion, 4°C; reservoir 300 mM lithium sulfate, 100 mM ADA pH 6.5, 30% PEG400, dextran sulfate additive; space group C222_(1), four monomers in the asymmetric unit; 3.5 Å.

What is called stoichiometry N is a count of units in the complex or per binding partner. For “untagged-cpAQP1aa-243 (C-terminally truncated aquaporin 1aa from Anabas testudineus, climbing perch) (domain or fragment)”, the stoichiometry N in experiment [1] and in experiment [2] was 4 each time.
